From patent US20190145976A1 (GOVERNING COUNCIL OF THE UNIVERSITY OF TORONTO, published 2019)

T1: recombinant soluble human αKlotho (human, UniProt Q9UEF7 34-981)
T1 construct: extracellular domain; Bought (R&D Systems); also called Hu aKL; soluble human αKlotho ectodomain
T1 sequence (looked up): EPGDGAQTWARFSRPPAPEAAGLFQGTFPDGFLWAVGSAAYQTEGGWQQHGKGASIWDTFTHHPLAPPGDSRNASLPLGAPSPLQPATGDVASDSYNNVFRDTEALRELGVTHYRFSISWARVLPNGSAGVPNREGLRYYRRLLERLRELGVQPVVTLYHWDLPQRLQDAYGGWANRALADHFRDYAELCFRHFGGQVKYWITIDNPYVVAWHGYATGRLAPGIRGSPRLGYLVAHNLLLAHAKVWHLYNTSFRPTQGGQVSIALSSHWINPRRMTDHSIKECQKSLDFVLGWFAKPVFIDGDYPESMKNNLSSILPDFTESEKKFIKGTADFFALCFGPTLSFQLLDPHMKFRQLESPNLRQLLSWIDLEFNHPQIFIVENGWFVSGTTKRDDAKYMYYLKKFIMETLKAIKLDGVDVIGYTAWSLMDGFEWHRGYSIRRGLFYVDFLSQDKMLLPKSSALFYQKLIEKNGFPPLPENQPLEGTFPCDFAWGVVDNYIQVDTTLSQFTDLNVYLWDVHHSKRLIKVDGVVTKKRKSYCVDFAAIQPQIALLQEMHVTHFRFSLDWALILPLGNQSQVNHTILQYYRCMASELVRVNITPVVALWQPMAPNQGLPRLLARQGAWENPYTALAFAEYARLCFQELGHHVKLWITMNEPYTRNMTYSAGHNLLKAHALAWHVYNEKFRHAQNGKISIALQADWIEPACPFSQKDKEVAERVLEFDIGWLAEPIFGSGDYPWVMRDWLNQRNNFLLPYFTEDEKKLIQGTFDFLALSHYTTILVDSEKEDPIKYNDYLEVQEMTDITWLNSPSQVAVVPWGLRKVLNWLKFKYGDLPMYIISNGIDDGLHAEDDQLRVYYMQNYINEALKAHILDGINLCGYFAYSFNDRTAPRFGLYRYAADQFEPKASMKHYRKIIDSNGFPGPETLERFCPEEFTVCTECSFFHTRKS

T2: ligand-binding domain of human FGFR1c (D142 to R365) (human, UniProt P11362 142-365)
T2 construct: range 142-365; also called FGFR1c alone
T2 sequence (looked up): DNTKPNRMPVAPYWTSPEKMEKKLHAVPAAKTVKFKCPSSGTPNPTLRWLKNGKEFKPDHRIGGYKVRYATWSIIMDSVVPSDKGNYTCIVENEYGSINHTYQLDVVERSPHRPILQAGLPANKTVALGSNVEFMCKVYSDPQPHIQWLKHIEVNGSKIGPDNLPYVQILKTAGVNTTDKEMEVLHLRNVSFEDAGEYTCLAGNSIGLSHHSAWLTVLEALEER

T3: native rat αKlotho in tissue and NRK cells (rat, UniProt Q9Z2Y9 35-1014)
T3 construct: also called αKlotho of rat parathyroid tissue; native αKlotho of NRK cells
T3 sequence (looked up): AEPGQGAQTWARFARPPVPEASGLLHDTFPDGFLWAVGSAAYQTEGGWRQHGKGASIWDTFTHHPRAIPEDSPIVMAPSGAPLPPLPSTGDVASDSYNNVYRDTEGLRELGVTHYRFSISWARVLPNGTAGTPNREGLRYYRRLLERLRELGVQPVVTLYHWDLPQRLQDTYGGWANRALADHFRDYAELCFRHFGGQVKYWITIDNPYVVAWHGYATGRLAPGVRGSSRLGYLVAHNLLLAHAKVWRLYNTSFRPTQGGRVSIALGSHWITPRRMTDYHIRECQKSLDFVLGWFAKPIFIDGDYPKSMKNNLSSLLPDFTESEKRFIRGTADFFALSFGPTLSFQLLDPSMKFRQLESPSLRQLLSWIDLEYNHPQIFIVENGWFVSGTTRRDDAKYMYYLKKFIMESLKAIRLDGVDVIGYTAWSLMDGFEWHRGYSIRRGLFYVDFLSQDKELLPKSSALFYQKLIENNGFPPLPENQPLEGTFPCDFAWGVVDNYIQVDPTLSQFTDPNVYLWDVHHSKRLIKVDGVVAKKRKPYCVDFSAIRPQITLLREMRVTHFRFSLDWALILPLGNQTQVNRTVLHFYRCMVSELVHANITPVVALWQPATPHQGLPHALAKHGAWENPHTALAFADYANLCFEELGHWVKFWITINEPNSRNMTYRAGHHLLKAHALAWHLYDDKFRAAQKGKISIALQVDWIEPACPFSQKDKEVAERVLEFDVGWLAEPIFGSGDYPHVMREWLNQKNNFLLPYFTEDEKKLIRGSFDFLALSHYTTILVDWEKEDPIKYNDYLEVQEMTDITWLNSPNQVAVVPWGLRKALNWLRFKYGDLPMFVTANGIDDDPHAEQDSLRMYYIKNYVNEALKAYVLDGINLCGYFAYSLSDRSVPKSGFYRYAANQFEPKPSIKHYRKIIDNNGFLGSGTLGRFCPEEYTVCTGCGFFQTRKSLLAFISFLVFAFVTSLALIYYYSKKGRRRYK

B1: sb106 Fab-phage (Fab, V domains shown)
VH: EVQLVESGGGLVQPGGSLRLSCAASGFNISYYSIHWVRQAPGKGLEWVAYISPSYGYTSYADSVKGRFTISADTSKNTAYLQMNSLRAEDTAVYYCARYYVYASHGWAGYGMDYWGQGTLVTVSS
VL: DIQMTQSPSSLSASVGDRVTITCRASQSVSSAVAWYQQKPGKAPKLLIYSASSLYSGVPSRFSGSRSGTDFTLTISSLQPEDFATYYCQQAGYSPITFGQGTKVEIKR
notes: also called sb106-phage; Sb106-phage
B2: sb106-IgG (antibody, V domains shown)
VH: B1 VH
VL: B1 VL

Assays:
[1] = target: T1, recombinant soluble human αKlotho; test: competitive Fab-phage ELISA: sb106-phage pre-incubated with soluble human αKlotho (50-0.0005 nM), then bound to plate-coated human αKlotho; competitive Fab-phage ELISA; soluble human αKlotho as competitor
Procedure: (§1) (B) Specificity determination of anti-αKlotho sb106 by Fab-phage ELISA: sb106 Fab-phage were incubated with the following immobilized antigens: a complex of FGFR1c/αKlotho complex (aKL-R1), FGFR1c alone (R1), human αKlotho (Hu aKL) and mouse αKlotho (Mu aKL), or neutravidin (NA) and bovine serum albumin (BSA) as negative controls. After washing off unbound phage, bound phages were detected using an HRP-conjugated anti-phage antibody. Colorimetric HRP reagents allow for absorbance readings at 450 nm. […] The binding signals to immobilized human αKlotho reported are an average of two data sets.
(§2) Binding selections, phage ELISAs and Fab protein purification were performed as described. Briefly, phage from library F were cycled through rounds of panning with the binary complex of αKlotho extracellular domain and FGFR1c ligand-binding domain on 96-well Maxisorp Immunoplates (Fisher Scientific, Nepean, ON, Canada) as the capture target. After 5 rounds of selection, phage were produced from individual clones grown in a 96-well format and phage ELISAs were performed to detect specific binding clones. […] A competitive binding ELISA was performed by pre-incubating sb106-phage with serial dilutions of soluble human αKlotho (50-0.0005 nM×1 hour) prior to binding to an ELISA plate coated with human αKlotho. […]

neutravidin = target: T4, neutravidin (UniProt P02701 25-152); test: Fab-phage ELISA on immobilised antigen, HRP-conjugated anti-phage antibody, absorbance at 450 nm
T4 construct: Negative control in the phage ELISA; also called NA; NAV
T4 sequence (P02701 25-152): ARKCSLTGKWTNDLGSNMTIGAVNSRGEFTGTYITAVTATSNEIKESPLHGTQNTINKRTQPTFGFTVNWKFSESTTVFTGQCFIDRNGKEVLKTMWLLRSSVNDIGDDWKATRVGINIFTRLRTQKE
Procedure: as §1
(§3) Binding selections, phage ELISAs and Fab protein purification were performed as described. Briefly, phage from library F were cycled through rounds of panning with the binary complex of αKlotho extracellular domain and FGFR1c ligand-binding domain on 96-well Maxisorp Immunoplates (Fisher Scientific, Nepean, ON, Canada) as the capture target. After 5 rounds of selection, phage were produced from individual clones grown in a 96-well format and phage ELISAs were performed to detect specific binding clones. […] A competitive binding ELISA was performed by pre-incubating sb106-phage with serial dilutions of soluble human αKlotho (50-0.0005 nM×1 hour) prior to binding to an ELISA plate coated with human αKlotho. […] Fab and IgG proteins were affinity-purified on Protein A affinity columns (GE Healthcare, Mississauga, ON, Canada).

bovine serum albumin = target: T5, bovine serum albumin (bovine, UniProt P02769 25-607); test: as above
T5 construct: Negative control in the phage ELISA; also called BSA
T5 sequence (P02769 25-607 limits assumed): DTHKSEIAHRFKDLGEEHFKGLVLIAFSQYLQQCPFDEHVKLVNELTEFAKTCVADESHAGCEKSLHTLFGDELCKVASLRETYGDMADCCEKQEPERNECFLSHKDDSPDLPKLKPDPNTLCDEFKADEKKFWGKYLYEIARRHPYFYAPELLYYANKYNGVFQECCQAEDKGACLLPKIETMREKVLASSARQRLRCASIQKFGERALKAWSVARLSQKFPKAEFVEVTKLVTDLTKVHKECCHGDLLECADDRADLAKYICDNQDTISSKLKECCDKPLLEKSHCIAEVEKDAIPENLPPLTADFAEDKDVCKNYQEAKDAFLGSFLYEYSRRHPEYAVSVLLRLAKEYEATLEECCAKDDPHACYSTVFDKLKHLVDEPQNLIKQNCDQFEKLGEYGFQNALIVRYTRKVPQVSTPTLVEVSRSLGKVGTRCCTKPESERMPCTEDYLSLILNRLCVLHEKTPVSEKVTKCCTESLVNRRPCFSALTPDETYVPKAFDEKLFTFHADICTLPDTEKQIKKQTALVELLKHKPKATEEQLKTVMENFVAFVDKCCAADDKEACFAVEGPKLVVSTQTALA
Procedure: as §1, §3

[2] = target: T2, ligand-binding domain of human FGFR1c …; test: as above
Procedure: as §1, §3

[3] = target: T1, recombinant soluble human αKlotho; test: competitive Fab-phage ELISA with soluble human αKlotho as competitor (FIG. 1C)
Procedure: as §1, §2

[4] = target: T3, native rat αKlotho in tissue and NRK …; test: immunohistochemistry on freshly frozen unfixed rat parathyroid sections; freshly frozen unfixed rat parathyroid tissue (native fold)
Procedure: For labeling, sections were blocked (PBS, 1.5% BSA, 10% goat serum; 40 min) and incubated with the primary antibody sb106 ([…] in blocking solution; 4° C. overnight). After washing (PBS), sections were incubated with the Alexa 546 goat anti-human IgG (1:800 dilution, Invitrogen) for 1 hour at room temperature. After additional washes with PBS, the sections were fixed with 4% paraformaldehyde in PBS, washed with PBS, and mounted and visualized with a Zeiss LSM510 microscope.
Sb106 was highly reactive against αKlotho under native conditions. Immunoblot signals under denaturing conditions against mouse, rat, and human kidney tissue were weak, but in samples from transgenic mice overexpressing αKlotho[79], sb106-Fab detected a band corresponding to the full-length extracellular domain of αKlotho (FIG. 2A). In cultured cells, sb106-Fab was not able to detect αKlotho in immunoblots under denaturing conditions with lysates from NRK cells expressing native αKlotho but it was able to detect overexpressed antigen in cell lysates from HEK293 cells transfected with αKlotho (FIG. 2B). […] Cells were then incubated with sb106-Fab ([…] in 1% BSA in PBS) for 1 hr. Cells were washed 5 times with cold PBS (2 min each) and then incubated with anti-FLAG-Alexa488 (the C-terminus of the Fab light chain contains a Flag epitope tag) (1:400 in 1% BSA in PBS) for 1 hr, while being protected from light. […]

Row | Binder | IC50 [1] [nM] | binding result (neutravidin) | binding result (bovine serum albumin) | binding result [2] | Kd [3] [nM] | binding result [4]
1 | B1 | 1.7 | no binding | no binding | no binding | 1 to 2 | 
2 | B2 |  |  |  |  |  | binds
